In patent publication US20170165338A1 one finds peptide exchange yield data, which are given here for one molecule.

This assay addresses HLA-A*02 (human). Kind of assay: UV-exchange b2m ELISA. (In general: An ELISA detects its analyte on a solid surface through an enzyme-linked reagent.)

SLTEVSLPL […] registered a peptide exchange yield of 50 to 75%.
